# Measurements reported in US8926955B2, “Synthesis of polymer conjugates of indolocarbazole compounds” (priority 2008, dated 2015).
# Read-outs that look alike come from different tables or passages of the source.
# How the values were obtained:
# Balb/c 3T3 cells = assay type: cell-based; settings: for IC50 (neutral red uptake): up to 1000 μg/ml
# Method: The potential in vitro phototoxicity of the test item was evaluated by the measurements of neutral red uptake for cellular toxicity on cultures of Balb/c 3T3 cells treated with different doses of the test item and exposed to UVA irradiation. Test item solutions were prepared using Earle's Balanced Salt Solution (EBSS).
# A preliminary dose-range finding experiment in the presence (+UVA) and in the absence (−UVA) of light was undertaken in order to select appropriate dose levels for the main assays. The test item was assayed at a maximum dose level of 1000 μg/ml (the upper limit indicated in the study protocol) and at a wide range of lower dose levels: 500, 250, 125, 62.5, 31.3, 15.6 and 7.81 μg/ml. […] In this case the chemical is considered to be non-phototoxic. The same dose range was used for the main assay.
# A main experiment was performed using the following dose levels: 1000, 500, 250, 125, 62.5, 31.3, 15.6 and 7.81 μg/ml.
# rat = assay: Acute dermal toxicity study in rats; assay type: in vivo
# Method: The acute toxicity of the conjugate of Example 3 was investigated following administration of a single dermal dose to the rat.
# A single dose of 2000 mg/kg was administered to a group of 5 male and 5 female animals for a 24 hour period. The day before scheduled dosing the fur was removed from the dorsal surfaces of the trunk over an estimated area of 10% of the total body surface. Care was taken to avoid any damage or abrasion to the skin. The test item was administered topically at a dose volume of 4 ml/kg body weight, just after its preparation. The required aliquot of the formulated test item was spread evenly over a gauze measuring 2.5×2.5 cm. The gauze patch was then placed onto the animal's skin, with the test item in direct contact with the skin. A strip of synthetic film was placed over the treated site and the whole assembly held in place by encircling the trunk of the animal with a length of elastic adhesive bandage. After a period of 24 hours, the tape dressing will be removed. The treated skin site was then gently washed free of any remaining test item using lukewarm water. Throughout the study, all animals will be checked twice daily. Animals were examined for signs of reaction to treatment on dosing, approximately 30 min, 2 and 4 hours after dosing on day 1, then daily for a total of 14 days. Each animal was weighed on the day of allocation to the study, on the day of dosing (day 1) and on days 8 and 15. After a 14 day period all animals were killed and subjected to a necropsy examination.
substance,measurement,setting,value
oxazolidindionic conjugate of K252a with PEG (1892 MW) [test item],Photo Irritation Factor (PIF),Balb/c 3T3 cells,could not be calculated
same,mean photo effect (MPE),Balb/c 3T3 cells,0.089
same,phototoxicity classification,Balb/c 3T3 cells,non phototoxic
same,IC50 (neutral red uptake),"Balb/c 3T3 cells; main experiment, both curves (+UV and -UV)",no IC50 value
same,IC50 (neutral red uptake),"Balb/c 3T3 cells; preliminary dose-range finding, +UVA and -UVA",no IC50 value was calculable
same,abnormalities in the treated site,rat; 2000 mg/kg single dermal dose,No abnormalities were observed in the treated site
same,clinical signs,rat; 2000 mg/kg single dermal dose,no clinical signs were observed
same,internal abnormalities at necropsy,rat; 2000 mg/kg single dermal dose,No internal abnormalities were found at necropsy
same,mortality,"rat; 2000 mg/kg single dermal dose, 14 day observation",No mortality occurred
same,changes in body weight,"rat; 2000 mg/kg single dermal dose, end of study",within the expected range
same,toxic effect,rat; dermal exposure over 24 hours at 2000 mg/kg,no toxic effect
same,LD50,"rat; single dermal dose, 24 hour exposure, rat",greater than 2000 mg/kg
